Paper PMC2965767, “Identification and Genome-Wide Prediction of DNA Binding Specificities for the ApiAP2 Family of Regulators from the Malaria Parasite”

T1: PFD0985w_D2 (AP2 domain 2) (Plasmodium falciparum, UniProt Q8I1N6 3268-3321)
T1 sequence: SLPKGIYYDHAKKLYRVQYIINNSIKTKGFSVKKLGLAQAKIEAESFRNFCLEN

B1: gbp130 (dsDNA)
DNA 1: AAGCAAATAAGATATTCCAAAAAAAAGTATTCTAATGTGTACTAATAAACCTTTATATAA
DNA 2: TTATATAAAGGTTTATTAGTACACATTAGAATACTTTTTTTTGGAATATCTTATTTGCTT
B2: PFD0985w_D2-2° (dsDNA)
DNA 1: AATATTATAATAGTCGTAGCCATCAATCCACACACCATGGTAATATAGATTTTCGTTTATATT
DNA 2: AATATAAACGAAAATCTATATTACCATGGTGTGTGGATTGATGGCTACGACTATTATAATATT

Tests used:
[1] = molecular target: PF11_0091 D1 (PF3D7_1107800, AP2 domain transcription factor, putative) (Plasmodium falciparum, UniProt Q8IIS4 1486-1548); assay: EMSA; 5 mM MgCl2 with 10 mM EDTA; LightShift buffer, 2.5% glycerol, 50 mM KCl, 0.05% NP-40, 50 ng/uL poly(dI-dC); room temperature, 20 min; details: tags: N-terminal GST (pGEX-4T1), kept; label: 5' biotin
[2] = molecular target: T1, PFD0985w_D2 (AP2 domain 2); assay: EMSA; poly(dI-dC); bound equally well as primary motif; LightShift EMSA buffer, 2.5% glycerol, 5 mM MgCl2, 10 mM EDTA, 50 mM KCl, 0.05% NP-40, 50 ng/uL poly(dI-dC), 10 fmol biotin probe, 50 or 250x competitor, room temperature 20 min; details: protein: recombinant; tags: N-terminal GST (pGEX-4T1); label: 5' biotin (probe); blunt

Binder	binding result [1]	binding result [2]
B1	binds	–
B2	–	binds
